Measurements taken from patent publication US20060269997A1 (Genentech, published 2006).

Key:
Flt-1 (1-3) monomer = biological target: T1, Flt-1 (1-3) monomer (UniProt P17948 27-331, limits assumed, biotin-labeled in the ELISA of Example 8); assay: competition ELISA: plate coated with VEGF (8-109), 100 pM biotin-labeled Flt1(1-3), serial dilutions of the competing VEGF (Example 8)
T1 construct: domain: domains 1 to 3; Genentech reagent; also called Flt(1-3); domains 1 to 3 of Flt-1
Description: (§1) After 1 hour, the plates were washed, and the bound protein stained with streptavidin horseradish peroxidase conjugate (Pharmacia) and assayed. Affinities were estimated as IC₅₀ values: the concentration of KDR(1-3) or Flt(1-3) that blocked 50% of protein binding.

KDR (1-3) monomer [1] = biological target: T2, KDR (1-3) monomer (UniProt P35968 20-327, limits assumed, biotin-labeled in the ELISA of Example 8); assay: competition ELISA: plate coated with VEGF (8-109), 100 pM biotin-labeled KDR(1-3), serial dilutions of the competing VEGF (Example 8)
T2 construct: domain: domains 1 to 3; Genentech reagent; also called domains 1 to 3 of KDR
T2 sequence (P35968 20-327 limits assumed): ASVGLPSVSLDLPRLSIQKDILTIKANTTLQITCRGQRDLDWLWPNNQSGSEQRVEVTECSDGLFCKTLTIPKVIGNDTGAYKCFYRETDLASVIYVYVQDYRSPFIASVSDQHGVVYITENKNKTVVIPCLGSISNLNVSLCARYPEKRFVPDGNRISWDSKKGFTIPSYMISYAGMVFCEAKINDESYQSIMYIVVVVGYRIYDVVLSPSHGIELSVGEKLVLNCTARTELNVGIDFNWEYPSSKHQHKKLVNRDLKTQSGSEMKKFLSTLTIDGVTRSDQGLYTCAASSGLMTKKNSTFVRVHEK
Description: as §1

KDR (1-3) monomer [2] = biological target: T2, KDR (1-3) monomer; assay: competition ELISA vs biotinylated VEGF (8-109), soluble KDR (1-3) captured by MAKD5
Description: Receptor binding assays were performed in 96-well immunoplates (Maxisorp, Nunc-Immunoplate, Nalge Nunc International, Rochester, N.Y.). Each well was coated with 100 μl of a solution containing 8 μg/ml of a monoclonal antibody to KDR known as MAKD5 (Genentech, South San Francisco, Calif.) in 50 mM carbonate buffer at pH 9.6 and incubated at 4° C. overnight. The supernatant was discarded, the wells were washed three times in washing buffer (0.05% Tween 20 in PBS), and the plate was blocked (150 μl per well) with block buffer (0.5% BSA, 0.01% thimerosal in PBS) at room temperature for one hour. The supernatant was discarded, and the wells were washed.
Aliquots of this mixture (100 μl) were added to the precoated microtiter wells and the plate was incubated for 1 hour at room temperature. […] The wells were then incubated with 3,3′, 5,5′-tetramethyl benzidine (0.2 gram/liter; Kirkegaard & Perry Laboratories, Gaithersburg, Md.) for about 10 minutes at room temperature. Absorbance was read at 450 nm on a Vmax plate reader (Molecular Devices, Menlo Park, Calif.).
Titration curves were fit with a four-parameter nonlinear regression curve-fitting program (KaleidaGraph, Synergy Software, Reading, Pa.).

T1 sequence (P17948 27-331 limits assumed): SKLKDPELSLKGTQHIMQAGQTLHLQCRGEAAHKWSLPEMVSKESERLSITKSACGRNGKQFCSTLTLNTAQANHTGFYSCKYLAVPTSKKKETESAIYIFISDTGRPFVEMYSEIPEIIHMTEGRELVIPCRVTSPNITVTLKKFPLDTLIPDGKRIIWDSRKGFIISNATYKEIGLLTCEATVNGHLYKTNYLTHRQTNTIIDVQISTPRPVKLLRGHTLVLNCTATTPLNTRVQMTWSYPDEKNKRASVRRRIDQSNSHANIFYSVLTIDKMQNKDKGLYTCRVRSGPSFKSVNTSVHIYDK

| Binder | IC50 (KDR (1-3) monomer [2]) [nM] | Relative Binding Affinity (ratio to native VEGF (8-109)) (KDR (1-3) monomer [2]) [fold] | fold reduction in binding (IC50 variant / IC50 VEGF(1-109)) (Flt-1 (1-3) monomer) [fold] | fold reduction in binding (IC50 variant / IC50 VEGF(1-109)) (KDR (1-3) monomer [1]) [fold] | further results |
| --- | --- | --- | --- | --- | --- |
| native VEGF (1-109) (ligand, human, UniProt P15692 207-315, looked up, 125I-labeled where used as tracer) APMAEGGGQNHHEVVKFMDVYQRSYCHPIETLVDIFQEYPDEIEYIFKPSCVPLMRCGGCCNDEGLECVPTEESNITMQIMRIKPHQGQHIGEMSFLQHNKCECRPKKD |  |  |  |  | IC50 (Flt-1 (1-3) monomer): 6 nM; IC50 (KDR (1-3) monomer [1]): 10 nM |
| LK-VRB-19s (ligand, human, UniProt P15692-4 27-135, looked up, one of the two is probably misprinted) APMAEGGGQNHHEVVKFEDVYRRSSCHPIETLVDIFQEYPDEIEYIFKPSCVPLMRCGGCCNSEMRECVPTEESNITMQIMRIKPHQGQHIGEMSFLQHNKCECRPKKD | 7 | 7 |  |  |  |
| LK-VRB-16s (ligand, human, UniProt P15692-4 27-135, looked up) APMAEGGGQNHHEVVKFMDVYRRSSCHPIETLVDIFQEYPDEIEYIFKPSCVPLMRCGGCCNSEMRECVPTEESNITMQIMRIKPHQGQHIGEMSFLQHNKCECRPKKD | 0.6 | 0.6 |  |  |  |
| Glu 64* (ligand) APMAEGGGQNHHEVVKFMDVYQRSYCHPIETLVDIFQEYPDEIEYIFKPSCVPLMRCGGCCNDAGLECVPTEESNITMQIMRIKPHQGQHIGEMSFLQHNKCECRPKKD |  |  | 5 | 10 |  |
| Asp 63** (ligand) APMAEGGGQNHHEVVKFMDVYQRSYCHPIETLVDIFQEYPDEIEYIFKPSCVPLMRCGGCCNAEGLECVPTEESNITMQIMRIKPHQGQHIGEMSFLQHNKCECRPKKD |  |  | 8 | 1 |  |
| Gln 79* (ligand) APMAEGGGQNHHEVVKFMDVYQRSYCHPIETLVDIFQEYPDEIEYIFKPSCVPLMRCGGCCNDEGLECVPTEESNITMAIMRIKPHQGQHIGEMSFLQHNKCECRPKKD |  |  | 3 | 55 |  |
| LK-VRB-26s (ligand, human, UniProt P15692-4 27-135, looked up) APMAEGGGQNHHEVVKFEDVLRRSSCHPIETLVDIFQEYPDEIEYIFKPSCVPLMRCGGCCNDEMRECVPTEESNITMQIMRIKPHQGQHIGEMSFLQHNKCECRPKKD | 23 | 23 |  |  |  |
| LK-VRB-11s (ligand, human, UniProt P15692-4 27-135, looked up) APMAEGGGQNHHEVVKFEDVLQRSYCHPIETLVDIFQEYPDEIEYIFKPSCVPLMRCGGCCNSEMRECVPTEESNITMQIMRIKPHQGQHIGEMSFLQHNKCECRPKKD | 2 | 2 |  |  |  |
| LK-VRB-12s (ligand, human, UniProt P15692-4 27-135, looked up) APMAEGGGQNHHEVVKFEDVYRRSYCHPIETLVDIFQEYPDEIEYIFKPSCVPLMRCGGCCNSEMRECVPTEESNITMQIMRIKPHQGQHIGEMSFLQHNKCECRPKKD | 0.4 | 0.4 |  |  |  |
| LK-VRB-25s (ligand, human, UniProt P15692-4 27-135, looked up) APMAEGGGQNHHEVVKFEDVLRRSSCHPIETLVDIFQEYPDEIEYIFKPSCVPLMRCGGCCNSEGRECVPTEESNITMQIMRIKPHQGQHIGEMSFLQHNKCECRPKKD | 4 | 4 |  |  |  |
| LK-VRB-23s (ligand, human, UniProt P15692-4 27-135, looked up) APMAEGGGQNHHEVVKFEDVLRRSSCHPIETLVDIFQEYPDEIEYIFKPSCVPLMRCGGCCNDEGRECVPTEESNITMQIMRIKPHQGQHIGEMSFLQHNKCECRPKKD | 11 | 11 |  |  |  |
| LK-VRB-17s (ligand, human, UniProt P15692-4 27-135, looked up) APMAEGGGQNHHEVVKFEDVLRRSYCHPIETLVDIFQEYPDEIEYIFKPSCVPLMRCGGCCNSEMRECVPTEESNITMQIMRIKPHQGQHIGEMSFLQHNKCECRPKKD | 3 | 3 |  |  |  |
| Gln 22** (ligand) APMAEGGGQNHHEVVKFMDVYARSYCHPIETLVDIFQEYPDEIEYIFKPSCVPLMRCGGCCNDEGLECVPTEESNITMQIMRIKPHQGQHIGEMSFLQHNKCECRPKKD |  |  | 15 | 6 |  |
| LK-VRB-13s (ligand, human, UniProt P15692-4 27-135, looked up) APMAEGGGQNHHEVVKFEDVYQRSSCHPIETLVDIFQEYPDEIEYIFKPSCVPLMRCGGCCNSEMRECVPTEESNITMQIMRIKPHQGQHIGEMSFLQHNKCECRPKKD | 14 | 14 |  |  |  |
| LK-VRB-14s (ligand, human, UniProt P15692-4 27-135, looked up) APMAEGGGQNHHEVVKFMDVLRRSYCHPIETLVDIFQEYPDEIEYIFKPSCVPLMRCGGCCNSEMRECVPTEESNITMQIMRIKPHQGQHIGEMSFLQHNKCECRPKKD | 0.5 | 0.5 |  |  |  |
| LK-VRB-20s (ligand, human, UniProt P15692-4 27-135, looked up) APMAEGGGQNHHEVVKFMDVLRRSSCHPIETLVDIFQEYPDEIEYIFKPSCVPLMRCGGCCNSEMRECVPTEESNITMQIMRIKPHQGQHIGEMSFLQHNKCECRPKKD | 2 | 2 |  |  |  |
| LK-VRB-22s (ligand, human, UniProt P15692-4 27-135, looked up) APMAEGGGQNHHEVVKFEDVLRRSSCHPIETLVDIFQEYPDEIEYIFKPSCVPLMRCGGCCNDEMLECVPTEESNITMQIMRIKPHQGQHIGEMSFLQHNKCECRPKKD | 4 | 4 |  |  |  |
| LK-VRB-15s (ligand, human, UniProt P15692-4 27-135, looked up) APMAEGGGQNHHEVVKFMDVLQRSSCHPIETLVDIFQEYPDEIEYIFKPSCVPLMRCGGCCNSEMRECVPTEESNITMQIMRIKPHQGQHIGEMSFLQHNKCECRPKKD | 2 | 2 |  |  |  |
| LK-VRB-21s (ligand, human, UniProt P15692-4 27-135, looked up) APMAEGGGQNHHEVVKFEDVLRRSSCHPIETLVDIFQEYPDEIEYIFKPSCVPLMRCGGCCNSEGLECVPTEESNITMQIMRIKPHQGQHIGEMSFLQHNKCECRPKKD | 3 | 3 |  |  |  |
| LK-VRB-24s (ligand, human, UniProt P15692-4 27-135, looked up) APMAEGGGQNHHEVVKFEDVLRRSSCHPIETLVDIFQEYPDEIEYIFKPSCVPLMRCGGCCNSEMLECVPTEESNITMQIMRIKPHQGQHIGEMSFLQHNKCECRPKKD | 10 | 10 |  |  |  |
| Glu 103 (ligand) APMAEGGGQNHHEVVKFMDVYQRSYCHPIETLVDIFQEYPDEIEYIFKPSCVPLMRCGGCCNDEGLECVPTEESNITMQIMRIKPHQGQHIGEMSFLQHNKCACRPKKD |  |  | 1 | 1 |  |
| LK-VRB-10s (ligand, human, UniProt P15692-4 27-135, looked up) APMAEGGGQNHHEVVKFMDVYQRSSCHPIETLVDIFQEYPDEIEYIFKPSCVPLMRCGGCCNSEMRECVPTEESNITMQIMRIKPHQGQHIGEMSFLQHNKCECRPKKD | 0.5 | 0.5 |  |  |  |
| Gln 89 (ligand) APMAEGGGQNHHEVVKFMDVYQRSYCHPIETLVDIFQEYPDEIEYIFKPSCVPLMRCGGCCNDEGLECVPTEESNITMQIMRIKPHQGAHIGEMSFLQHNKCECRPKKD |  |  | 1 | 1 |  |
| Arg 105 (ligand) APMAEGGGQNHHEVVKFMDVYQRSYCHPIETLVDIFQEYPDEIEYIFKPSCVPLMRCGGCCNDEGLECVPTEESNITMQIMRIKPHQGQHIGEMSFLQHNKCECAPKKD |  |  | 1 | 1 |  |
| Gly 65** (ligand) APMAEGGGQNHHEVVKFMDVYQRSYCHPIETLVDIFQEYPDEIEYIFKPSCVPLMRCGGCCNDEALECVPTEESNITMQIMRIKPHQGQHIGEMSFLQHNKCECRPKKD |  |  | 1 | 1 |  |
